Consider two molecules from patent US20260028403A1 (Zymeworks, published 2026).

One test concerns the target T1, Human CLDN18.2 (human).
T1 construct: on transfected HEK293-6E cells or native on SNU 601 cells
Kind of test: flow cytometry, SNU 601 cells.

Test [1] deals with T2, Recombinant human CD3 epsilon/delta heterodimer, his tag protein (Acro Biosystems) (human, UniProt P07766 23-126; P04234 22-105).
T2 construct: bought
Kind of test: SPR Biacore T200, CD3 e/d-his on CM5, construct injected, 1:1 model.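 Further: measured at 25 °C in HEPES-buffered saline with EDTA and Tween 20 at pH 7.4, values are means of three independent runs.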

Test [2] addresses T3, Recombinant human/cynomolgus/rhesus macaque CD28 mouse IgG2a Fc fusion protein (Acro Biosystems) (human/cynomolgus/rhesus macaque, UniProt P10747 19-152).
T3 construct: bought; also called huCD28
The test is described as follows: SPR Biacore T200, CD28-mIgG2a Fc on CM5, construct injected, 1:1 model.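 Further: fc fusion captured by amine coupling, run at 25 °C in HEPES buffer pH 7.4, association 140-500 s then dissociation 600-1200 s, values averaged over three independent runs.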

Test [3] concerns the target T4, Recombinant MSLN his tag protein (R&D systems) (UniProt Q13421 296-580, limits assumed).
T4 construct: his tag; also called mesothelin
The test is described as follows: SPR Biacore T200, MSLN-his on CM5, construct flowed, 1:1 model.

B1: v37663 (bispecific antibody, human IgG1, lambda, L234A L235A)
heavy 1: not shown
heavy 2: QVQLVESGGGLVQPGGSLRLSCSVSGIDLSSNPMIWVRQAPGKGLQYIGIIDTDGSTYYADWAKGRFTISKDSTTVYLQINSPRAEDTAVYYCARRLHGSSNGYYDDLWGQGTLVTVSSGGGGSGGGGSGGGGSGGGGSDGQMTQSPSSVSASVGDRVTITCQASQSIYSYLSWYQQKPGQRPKLLIYKASTLASGVPSRFSGSGSGTDFTLTISSVQPEDFATYYCQQGYTVTNVDKNTFGGGTKVEIKAAEPKSSDKTHTCPPCPAPEAAGGPSVFLFPPKPKDTLMISRTPEVTCVVVSVSHEDPEVKFNWYVDGVEVHNAKTKPREEQYNSTYRVVSVLTVLHQDWLNGKEYKCKVSNKALPAPIEKTISKAKGQPREPQVYVLPPSRDELTKNQVSLLCLVKGFYPSDIAVEWESNGQPENNYLTWPPVLDSDGSFFLYSKLTVDKSRWQQGNVFSCSVMHEALHNHYTQKSLSLSPG
light: NFMLTQPHSVSESPGKTVTISCKRNTGNIGSNYVNWYQQHEGSSPTTIIYRNDKRPDGVSDRFSGSIDRSSKSASLTISNLKTEDEADYFCQSYSSGFIFGGGTKLTVLGQPKAAPSVTLFPPSSEELQANKATLVCLISDFYPGAVTVAWKADSSPVKAGVETTTPSKQSNNKYAASSYLSLTPEQWKSHRSYSCQVTHEGSTVEKTVAPTECS
notes: 13B08 VH-VL scFv); also called anti-(CLDN18.2xCD3) bispecific control
In the test with Human CLDN18.2, B1 displayed a Bmax of 9200 MFI and an EC50 of 31.3 nM. In addition, in test [1], the Kd was found to be 76.4 nM, the koff came out at 0.0157 s⁻¹ and the association rate constant (kon) amounted to 206000 M⁻¹ s⁻¹.

B2: v34918 (trispecific antibody, human IgG1, kappa, L234A L235A)
heavy 1: QVQLQESGPGLVKPSETLSLTCAVSGFSLTSYGVHWIRQPPGKGLEWLGVIWPGGGTNFNSALMSRLTISEDTSKNQVSLKLSSVTAADTAVYYCARDRAYGNYLYAMDYWGQGTLVTVSSASTKGPSVFPLAPSSKSTSGGTAALGCLVKDYFPEPVTVSWNSGALTSGVHTFPAVLQSSGLYSLSSVVTVPSSSLGTQTYICNVNHKPSNTKVDKKVEPKSCDKTHTCPPCPAPEAAGGPSVFLFPPKPKDTLMISRTPEVTCVVVSVSHEDPEVKFNWYVDGVEVHNAKTKPREEQYNSTYRVVSVLTVLHQDWLNGKEYKCKVSNKALPAPIEKTISKAKGQPREPQVYVYPPSRDELTKNQVSLTCLVKGFYPSDIAVEWESNGQPENNYKTTPPVLDSDGSFALVSKLTVDKSRWQQGNVFSCSVMHEALHNHYTQKSLSLSPGGGGGSGNFMLTQPHSVSESPGKTVTISCKRNTGNIGSNYVNWYQQHEGSSPTTIIYRNDKRPDGVSDRFSGSIDRSSKSASLTISNLKTEDEADYFCQSYSSGFIFGGGTKLTVLGGGGSGGGGSGGGGSGGGGSEVQLVESGGGLVQPGGSLRLSCAASGVTFNYYGMSWIRQAPGKGLEWVASITSSGGRIYYPDSVKGRFTISRENTQKTLYLQMNSLRAEDTAVYYCTLDGRDGWVAYWGQGTLVTVSS
heavy 2: EIVLTQSPATLSLSPGERVTMSCSASSSVSYMHWYQQKPGQAPRLWIYDTSKLASGVPARFSGSGSGTDYTLTISSVEPEDNAVYYCQQWSGHPLTFGQGTKVEIKGGGGSGGGGSGGGGSGGGGSQVQLVQSGAEVKKPGASVKISCKASGYSFTGYTMNWVRQAPGQGLEWIGLITPYSGASSYAQKFQGRATLTVDKSTSTAYMELSSLRSEDTAVYYCARGGYDGRGFDYWGQGTNVTVSSAAEPKSSDKTHTCPPCPAPEAAGGPSVFLFPPKPKDTLMISRTPEVTCVVVSVSHEDPEVKFNWYVDGVEVHNAKTKPREEQYNSTYRVVSVLTVLHQDWLNGKEYKCKVSNKALPAPIEKTISKAKGQPREPQVYVLPPSRDELTKNQVSLLCLVKGFYPSDIAVEWESNGQPENNYLTWPPVLDSDGSFFLYSKLTVDKSRWQQGNVFSCSVMHEALHNHYTQKSLSLSPG
light: DIQMTQSPSSLSASVGDRVTITCRASESVEYYVTSLMQWYQQKPGKAPKLLIYAASNVDSGVPSRFSGSGSGTDFTLTISSLQPEDIATYYCQQSRKVPFTFGGGTKVEIKRTVAAPSVFIFPPSDEQLKSGTASVVCLLNNFYPREAKVQWKVDNALQSGNSQESVTEQDSKDSTYSLSSTLTLSKADYEKHKVYACEVTHQGLSSPVTKSFNRGEC
notes: Het Fc, FcKO; also called CD28xCD3xMSLN trispecific
Regarding B2, in test [2], the equilibrium dissociation constant (Kd) worked out at 50 nM, the koff was found to be 0.00259 s⁻¹ and the association rate constant (kon) stood at 52700 M⁻¹ s⁻¹. Moreover, in test [1], the Kd was found to be 118 nM, the koff stood at 0.0135 s⁻¹ and the association rate constant (kon) stood at 118000 M⁻¹ s⁻¹. For the same molecule, in test [3], the equilibrium dissociation constant (Kd) worked out at 7.08 nM, the koff was determined as 0.00187 s⁻¹ and the kon was 294000 M⁻¹ s⁻¹.
